Data taken from paper doi:10.1101/2020.07.07.192757v1 (biorxiv, 2020).

Legend:
[1] = target: T1, CpPT1 (Citrus x paradisi, UniProt A0A810JZE7); assay: geranyltransferase assay, LC product quantification, recombinant microsomes; conditions: read-out: Apparent Km; co-substrate GPP; 10 mM MgCl2, pH 7.6, 28 °C
T1 sequence (A0A810JZE7 1-408 limits assumed): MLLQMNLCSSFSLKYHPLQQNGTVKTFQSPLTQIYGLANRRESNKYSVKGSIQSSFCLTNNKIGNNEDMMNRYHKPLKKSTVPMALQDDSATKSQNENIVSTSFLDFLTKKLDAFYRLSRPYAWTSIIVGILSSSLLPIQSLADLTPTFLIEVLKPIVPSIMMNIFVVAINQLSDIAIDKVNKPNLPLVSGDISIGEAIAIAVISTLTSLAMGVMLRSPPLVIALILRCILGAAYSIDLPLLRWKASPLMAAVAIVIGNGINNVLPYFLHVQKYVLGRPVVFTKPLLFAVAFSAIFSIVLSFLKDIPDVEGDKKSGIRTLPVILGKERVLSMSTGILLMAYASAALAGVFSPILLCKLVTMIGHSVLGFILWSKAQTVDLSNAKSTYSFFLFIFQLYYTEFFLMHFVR

[2] = target: T2, AkPT1 (Angelica keiskei, UniProt A0A810JZD5); assay: dimethylallyltransferase assay, HPLC, recombinant microsomes; format: cell-based; conditions: read-out: Apparent Km; co-substrate DMAPP; 10 mM MgCl2, pH 8.0, 30 °C
T2 sequence (A0A810JZD5 1-398): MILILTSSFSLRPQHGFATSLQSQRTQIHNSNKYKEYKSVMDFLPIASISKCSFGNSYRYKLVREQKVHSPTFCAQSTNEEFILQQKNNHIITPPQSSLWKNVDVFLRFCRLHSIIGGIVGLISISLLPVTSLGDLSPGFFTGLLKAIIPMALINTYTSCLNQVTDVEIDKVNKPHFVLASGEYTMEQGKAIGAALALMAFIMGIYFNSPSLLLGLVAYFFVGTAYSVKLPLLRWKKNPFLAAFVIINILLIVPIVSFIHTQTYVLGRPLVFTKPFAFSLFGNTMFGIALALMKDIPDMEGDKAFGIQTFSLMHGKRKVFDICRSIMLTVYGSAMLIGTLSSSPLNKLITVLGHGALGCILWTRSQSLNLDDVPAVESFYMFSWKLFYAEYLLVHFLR

[3] = substrate: CC(C)=CCOP(=O)(O)OP(=O)(O)O; assay: as above; format: cell-based, Angelica keiskei; conditions: co-substrate bergaptol, 10 mM MgCl2, pH 8.0, 30 °C
[4] = substrate: O=c1ccc2c(O)cc(O)cc2o1; assay: cells, lysate or membranes; conditions: co-substrate GPP, 10 mM MgCl2, pH 7.6, 28 °C
[5] = substrate: COc1c2ccoc2c(O)c2oc(=O)ccc12; assay: cells, lysate or membranes; conditions: co-substrate GPP, 10 mM MgCl2, pH 7.6, 28 °C
[6] = substrate: CC(C)=CCC/C(C)=C/COP(=O)(O)OP(=O)(O)O; assay: cells, lysate or membranes; conditions: co-substrate bergaptol, 10 mM MgCl2, pH 7.6, 28 °C
[7] = substrate: COc1cc(O)c2ccc(=O)oc2c1; assay: cells, lysate or membranes; conditions: co-substrate GPP, 10 mM MgCl2, pH 7.6, 28 °C
[8] = substrate: O=c1ccc2cc3ccoc3c(O)c2o1; assay: cells, lysate or membranes; conditions: co-substrate GPP, 10 mM MgCl2, pH 7.6, 28 °C

## O=c1ccc2c(O)c3ccoc3cc2o1 [compound 12, Bergaptol]
[1]
  Km: 52 ± 4 µM
[2]
  Km: 3.1 ± 0.3 µM

B1: AkPT1 (Angelica keiskei) (protein)
chain: MILILTSSFSLRPQHGFATSLQSQRTQIHNSNKYKEYKSVMDFLPIASISKCSFGNSYRYKLVREQKVHSPTFCAQSTNEEFILQQKNNHIITPPQSSLWKNVDVFLRFCRLHSIIGGIVGLISISLLPVTSLGDLSPGFFTGLLKAIIPMALINTYTSCLNQVTDVEIDKVNKPHFVLASGEYTMEQGKAIGAALALMAFIMGIYFNSPSLLLGLVAYFFVGTAYSVKLPLLRWKKNPFLAAFVIINILLIVPIVSFIHTQTYVLGRPLVFTKPFAFSLFGNTMFGIALALMKDIPDMEGDKAFGIQTFSLMHGKRKVFDICRSIMLTVYGSAMLIGTLSSSPLNKLITVLGHGALGCILWTRSQSLNLDDVPAVESFYMFSWKLFYAEYLLVHFLR
[3]
  Km: 1.8 ± 0.1 µM

B2: CpPT1 (Citrus x paradisi) (protein)
chain: MLLQMNLCSSFSLKYHPLQQNGTVKTFQSPLTQIYGLANRRESNKYSVKGSIQSSFCLTNNKIGNNEDMMNRYHKPLKKSTVPMALQDDSATKSQNENIVSTSFLDFLTKKLDAFYRLSRPYAWTSIIVGILSSSLLPIQSLADLTPTFLIEVLKPIVPSIMMNIFVVAINQLSDIAIDKVNKPNLPLVSGDISIGEAIAIAVISTLTSLAMGVMLRSPPLVIALILRCILGAAYSIDLPLLRWKASPLMAAVAIVIGNGINNVLPYFLHVQKYVLGRPVVFTKPLLFAVAFSAIFSIVLSFLKDIPDVEGDKKSGIRTLPVILGKERVLSMSTGILLMAYASAALAGVFSPILLCKLVTMIGHSVLGFILWSKAQTVDLSNAKSTYSFFLFIFQLYYTEFFLMHFVR
[4]
  Km: 280 ± 30 µM
[5]
  Km: 700 ± 100 µM
[6]
  Km: 10 ± 1 µM
[7]
  Km: 250 ± 30 µM
[8]
  Km: 280 ± 20 µM
